Values belong to the binder of their own block, whether it stands above or below them.
Experiments:
[1] = molecular target: T1, Fc-CLEC-1A (recombinant human Fc-CLEC-1 protein, OSE IMMUNOTHERAPEUTICS) (human, Alexa Fluor 488 label in the flow cytometry competition assays); test: flow cytometry competition: antibody pre-incubated with A488-labelled human Fc-CLEC-1 (10 µg/mL), then binding to live Hepa1.6 cells (ligand m16); % hFc-CLEC-1+ cells normalised on hIgG4
T1 construct: also called hFc-CLEC; Fc-CLEC1-A488
T1 chain: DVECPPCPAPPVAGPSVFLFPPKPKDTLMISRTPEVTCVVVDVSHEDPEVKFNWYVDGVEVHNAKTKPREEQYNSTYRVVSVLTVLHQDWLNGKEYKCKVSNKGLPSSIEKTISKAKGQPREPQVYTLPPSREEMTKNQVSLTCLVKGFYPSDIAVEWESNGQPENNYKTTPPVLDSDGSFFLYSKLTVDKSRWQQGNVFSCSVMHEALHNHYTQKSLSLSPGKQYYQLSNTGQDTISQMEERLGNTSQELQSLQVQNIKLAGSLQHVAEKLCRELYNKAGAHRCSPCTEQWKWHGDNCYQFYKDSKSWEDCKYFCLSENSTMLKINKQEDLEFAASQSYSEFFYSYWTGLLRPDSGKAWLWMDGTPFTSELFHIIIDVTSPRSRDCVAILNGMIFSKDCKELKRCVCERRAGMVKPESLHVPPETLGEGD
Source text: (§1) Murine hepatoma Hepa 1.6 or colorectal carcinoma MC38 cell lines were also used in an antagonist assay. […] Finally, cells were fixed with 1% PFA solution and read on a cytometer.

mice CLEC-1A protein = molecular target: T2, mice CLEC-1A protein (mouse, UniProt Q8BWY2 73-269, limits assumed); test: in vitro; assay not given
T2 construct: also called mice orthologue of CLEC-1A
T2 sequence (looked up): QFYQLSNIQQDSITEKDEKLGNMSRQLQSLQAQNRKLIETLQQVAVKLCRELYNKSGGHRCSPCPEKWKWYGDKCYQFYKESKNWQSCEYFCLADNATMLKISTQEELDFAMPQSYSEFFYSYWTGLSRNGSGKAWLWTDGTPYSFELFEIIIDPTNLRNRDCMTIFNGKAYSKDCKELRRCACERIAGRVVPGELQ

[2] = molecular target: T1, Fc-CLEC-1A (recombinant human Fc-CLEC-1 …); test: flow cytometry competition; inhibition of Fc-CLEC-1-A488 binding to Hepa 1.6 or MC38 cells; reference chimeric 11H11
Source text: as §1

[3] = molecular target: T3, recombinant hCLEC1-His (R&D SYSTEMS reference 1704-CL) (human, UniProt Q8NC01 74-280, limits assumed); test: BLITZ: CLEC-His immobilised on a NINTA biosensor (10 µg/ml), antibody at 20 µg/ml, 120 s association and 120 s dissociation
T3 construct: Bought protein; also called CLEC-His; Clec-His; not shown: His tag
T3 sequence: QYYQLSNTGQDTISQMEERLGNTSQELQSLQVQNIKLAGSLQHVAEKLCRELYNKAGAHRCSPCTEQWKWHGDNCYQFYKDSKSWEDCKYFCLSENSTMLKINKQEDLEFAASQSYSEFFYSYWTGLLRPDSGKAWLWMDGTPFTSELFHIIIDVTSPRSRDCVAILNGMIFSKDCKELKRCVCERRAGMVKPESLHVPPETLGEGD

[4] = molecular target: T1, Fc-CLEC-1A (recombinant human Fc-CLEC-1 …); test: flow cytometry competition: antibody pre-incubated with A488-labelled Fc-CLEC1 (100 nM), then binding to permeabilised NALM6 cells (CLEC-1 ligand m15); % stained cells
Description: Revelation was performed on CYTOFLEX cytometer, values corresponding to percentage of stained cells (%).
To measure competition on NALM6 cells.

[5] = molecular target: T1, Fc-CLEC-1A (recombinant human Fc-CLEC-1 …); test: flow cytometry competition: antibody pre-incubated with A488-labelled human Fc-CLEC-1 (10 µg/mL), then binding to live MC38 cells (ligand m16); % hFc-CLEC-1+ cells normalised on hIgG4
Source text: as §1

[6] = molecular target: T1, Fc-CLEC-1A (recombinant human Fc-CLEC-1 …); test: flow cytometry competition; inhibition of Fc-CLEC-1-A488 binding to Hepa 1.6 or MC38 cells; reference chimeric 6C5
Source text: as §1

[7] = molecular target: T1, Fc-CLEC-1A (recombinant human Fc-CLEC-1 …); test: flow cytometry competition; inhibition of Fc-CLEC-1-A488 binding to Hepa 1.6 cells; reference chimeric 14H9
Source text: as §1

[8] = molecular target: T1, Fc-CLEC-1A (recombinant human Fc-CLEC-1 …); test: flow cytometry competition: antibody pre-incubated with A488-labelled Fc-CLEC1 (10 nM), then binding to permeabilised Raji cells (CLEC-1 ligand m15); % stained cells

B1: chimeric 14H9 (antibody, V domains shown)
VH: QVQLKESGPGLVAPSQSLSITCTISGFSLTTYGIHWVRQPPGKGLEWLVVIWSDGSTIYNSALKSRLSISKDNSKSQVFLKMNSLQTDDTAIYYCARHGGYYNYFDYWGQGTTLTVSS
VL: DIQMNQSPSSLSASLGDTITITCHASQNINVWLSWYQQKPGNIPKLLIYKASNLHTGVPSRFSGSGSGTTFTLTIDSLQPEDIATYYCQQGQSYWTFGGGTKLEIKR
EC50 [1]: 2.72 µg/mL

B4: chimeric 11H11 (antibody, V domains shown)
VH: QIHLVQSGPELKKPGETVKISCKASGYTFTNFGMNWVKQAPGKGLKWMGWINTNTGEPTYADDFKGRFAFSLETSASTAYLQINNLKNEDTATYFCARGAPAWFTYWGQGTLVTVSA
VL: DIQMTQSPASLSASVGETVTITCRATENIYSYLAWYQQKQGKSPQFLVYNAKTLAEGMPSRFSGSGSGTQFSLKINILQPEDFGTYYCQHHFGTPLTFGAGTKLELKR
EC50 [5]: 2.33 µg/mL
EC50 [1]: 2.58 µg/mL

B5: chimeric 6C5 (antibody, V domains shown)
VH: QVQLQQSGPELVKPGASVKMSCKASGYTFTDYVISWVKQKTGQGLEWIGEIYPGSGNTYYNEKFKGKATLTADKSSSTAYIHLSSLTSEDSAVYFCAGGGSSHFDYWGQGTTLTVSS
VL: not shown
EC50 [5]: 2.81 µg/mL
EC50 [1]: 2.44 µg/mL

The remaining lines, values ahead:

binding result (mice CLEC-1A protein): no binding
EC50 ratio, humanized against chimeric counterpart [2]: ≤ 0.5 fold (EC50 humanized / EC50 chimeric)
Kd [3]: 0.301 nM
koff [3]: 7.19e-05 s⁻¹
kon [3]: 239000 M⁻¹ s⁻¹
IC50 (read off the curve) [4]: ~3 µg/mL
EC50 [5]: 1.33 µg/mL
EC50 [1]: 0.542 µg/mL
B2: humanized 11H11 (antibody, human IgG4, V domains shown)
VH: QIQLVQSGSELKKPGASVKVSCKASGYTFTNFGMNWVRQAPGQGLEWMGWINTNTGEPTYADDFKGRFVFSLDTSVSTAYLQISSLKAEDTATYFCARGAPAWFTYWGQGTTVTVSS
VL: DIQMTQSPSSLSASVGDRVTITCRASESIYSYLAWYQQKPGKAPKFLIYNAKTLASGVPSRFSGSGSGTDFTLTISSLQPEDFATYYCQHHFGTPLTFGQGTKLEIK
notes: Only variable domains are tied to the antibody; also called hum 11H11

binding result (mice CLEC-1A protein): no binding
EC50 ratio, humanized against chimeric counterpart [6]: ≤ 0.5 fold (EC50 humanized / EC50 chimeric)
Kd [3]: 5.69 nM
koff [3]: 0.000275 s⁻¹
kon [3]: 48300 M⁻¹ s⁻¹
IC50 (read off the curve) [4]: ~3 µg/mL
EC50 [5]: 0.522 µg/mL
EC50 [1]: 1.06 µg/mL
B3: humanized 6C5 (antibody, V domains shown)
VH: QVQLVQSGAEVKKPGSSVKMSCKASGYTFTDYVISWVRQAPGQGLEWMGEIYPGSGNTYYNQKFQGRVTLTADKSTSTAYMELSSLRSEDTAVYYCAGGGSSHFDYWGQGTTVTVSS
VL: EIVLTQSPATLSLSPGERATLSCRASQSVDNHGFSFMNWFQQKPGQAPRLLIYAASNRGTGIPARFSGSGSGTDFTLTISSMEPEDFAVYYCQQSKEVPWTFGGGTKVEIK
notes: Only variable domains are tied to the antibody

binding result (mice CLEC-1A protein): no binding
EC50 ratio, humanized against chimeric counterpart [7]: ≤ 0.5 fold (EC50 humanized / EC50 chimeric)
Kd [3]: 5.4 nM
koff [3]: 0.000419 s⁻¹
kon [3]: 77700 M⁻¹ s⁻¹
IC50 (read off the curve) [8]: ~0.2 µg/mL
IC50 (read off the curve) [4]: ~3 µg/mL
EC50 [1]: 0.539 µg/mL
B6: humanized 14H9 (antibody, V domains shown)
VH: QVQLVESGGGVVQPGRSLRLSCAISGFTLTTYGIHWVRQAPGKGLEWVAVIWSDASTIYASSLKSRFTISKDNTKNTVYLQMTSLRAEDTAVYYCARHGGYYNYFDYWGQGTLVTVSS
VL: DIQMTQSPSSLSASVGDRVTITCHASQNINVWLSWYQQKPGKAPKLLLYKASNLHTGVPSRFSGSGSGTDFTLTISSLQPEDIATYYCQQGQSYWTFGGGTKVEIK
notes: as for B3

From patent US20260103526A1 (OSE IMMUNOTHERAPEUTICS, published 2026)
